These results are taken from patent US20260285984 (published 2026).

The Kd is the equilibrium constant for the complex coming apart. High values mean a looser complex, low ones a tighter complex.

The target in this assay is PD-1 (human). In words: SPR (range 50-70 nM).
PD-1 (human), sequence (chain, as listed by the source): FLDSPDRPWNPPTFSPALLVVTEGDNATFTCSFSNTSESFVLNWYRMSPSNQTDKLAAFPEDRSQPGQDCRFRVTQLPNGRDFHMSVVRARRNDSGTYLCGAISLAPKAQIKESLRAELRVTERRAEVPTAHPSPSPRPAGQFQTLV

B1: PD-1 agonist VHH (antibody, V domains shown)
VH: EVQLVESGGALVQPGGSLRLSCAASGFTFSSYAMTWVRQAPGKGPEWVSAIASDGASTSYLDSVKGRFTVSRDNAKNTLYLQMNSLKPEDTAVYYCARGGYLTYDRYGQGTQVTVSS
B1 had a Kd of approximately 60 nM.
